Values of other authors, collected in PMC12728182.

Experiments:
ACK (Homo sapiens) = ACK (Homo sapiens) (UniProt Q07912)
WASP (Homo sapiens) = WASP (Homo sapiens) (UniProt P42768)
PAK1 (Homo sapiens) = PAK1 (Homo sapiens) (UniProt Q13153)
Chain of PAK1 (Homo sapiens) (Q13153 2-545): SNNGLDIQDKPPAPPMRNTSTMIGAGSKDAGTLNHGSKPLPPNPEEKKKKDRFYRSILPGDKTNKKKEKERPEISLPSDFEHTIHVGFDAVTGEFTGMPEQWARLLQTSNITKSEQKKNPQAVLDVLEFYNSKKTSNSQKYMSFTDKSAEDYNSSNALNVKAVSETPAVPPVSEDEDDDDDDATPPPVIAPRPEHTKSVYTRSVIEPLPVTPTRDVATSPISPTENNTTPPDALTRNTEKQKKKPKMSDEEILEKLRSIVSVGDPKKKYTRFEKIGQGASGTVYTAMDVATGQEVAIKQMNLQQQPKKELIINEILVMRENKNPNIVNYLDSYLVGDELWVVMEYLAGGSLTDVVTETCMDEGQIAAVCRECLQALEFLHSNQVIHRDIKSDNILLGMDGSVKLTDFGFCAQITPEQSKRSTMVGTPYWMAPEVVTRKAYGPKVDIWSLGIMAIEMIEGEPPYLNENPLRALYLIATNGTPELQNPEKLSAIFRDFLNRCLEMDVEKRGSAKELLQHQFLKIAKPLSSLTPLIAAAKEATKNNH

Chain of Cdc42 (P60953 1-188): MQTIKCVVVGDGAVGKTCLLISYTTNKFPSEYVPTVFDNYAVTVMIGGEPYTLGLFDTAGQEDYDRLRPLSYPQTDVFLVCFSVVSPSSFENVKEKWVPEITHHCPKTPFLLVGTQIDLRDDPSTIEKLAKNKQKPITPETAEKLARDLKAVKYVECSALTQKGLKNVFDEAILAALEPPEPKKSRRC
Chain of ACK (Homo sapiens) (Q07912 whole entry): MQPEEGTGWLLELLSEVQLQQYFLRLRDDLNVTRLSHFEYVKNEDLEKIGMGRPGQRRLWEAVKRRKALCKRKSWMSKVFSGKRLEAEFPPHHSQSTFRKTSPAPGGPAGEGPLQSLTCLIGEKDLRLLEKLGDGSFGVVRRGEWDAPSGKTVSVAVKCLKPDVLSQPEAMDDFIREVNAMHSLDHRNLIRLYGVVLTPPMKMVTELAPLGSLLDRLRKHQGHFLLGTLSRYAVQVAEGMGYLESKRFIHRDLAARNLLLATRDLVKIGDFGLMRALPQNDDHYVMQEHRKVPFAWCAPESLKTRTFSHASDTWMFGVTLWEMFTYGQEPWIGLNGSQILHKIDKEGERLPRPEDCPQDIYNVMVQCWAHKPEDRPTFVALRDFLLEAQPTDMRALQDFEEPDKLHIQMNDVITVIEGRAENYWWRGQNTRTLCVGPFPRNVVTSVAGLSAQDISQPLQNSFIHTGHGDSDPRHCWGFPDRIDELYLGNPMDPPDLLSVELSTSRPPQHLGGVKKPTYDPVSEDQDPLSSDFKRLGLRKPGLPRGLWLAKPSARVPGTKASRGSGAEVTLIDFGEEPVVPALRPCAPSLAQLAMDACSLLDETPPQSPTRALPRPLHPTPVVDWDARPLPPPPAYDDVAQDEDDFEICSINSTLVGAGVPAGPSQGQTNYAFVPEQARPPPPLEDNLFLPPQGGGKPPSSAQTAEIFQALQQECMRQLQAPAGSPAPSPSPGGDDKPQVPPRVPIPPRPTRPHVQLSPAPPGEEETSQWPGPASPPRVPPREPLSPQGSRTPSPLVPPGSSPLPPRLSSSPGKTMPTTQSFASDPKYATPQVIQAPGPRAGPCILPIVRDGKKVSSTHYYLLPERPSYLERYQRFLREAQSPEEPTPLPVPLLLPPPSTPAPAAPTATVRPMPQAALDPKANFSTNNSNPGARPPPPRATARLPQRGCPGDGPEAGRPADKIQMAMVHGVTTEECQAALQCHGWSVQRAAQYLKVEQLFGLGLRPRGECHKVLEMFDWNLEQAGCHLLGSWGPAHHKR
Chain of WASP (Homo sapiens) (P42768 2-502): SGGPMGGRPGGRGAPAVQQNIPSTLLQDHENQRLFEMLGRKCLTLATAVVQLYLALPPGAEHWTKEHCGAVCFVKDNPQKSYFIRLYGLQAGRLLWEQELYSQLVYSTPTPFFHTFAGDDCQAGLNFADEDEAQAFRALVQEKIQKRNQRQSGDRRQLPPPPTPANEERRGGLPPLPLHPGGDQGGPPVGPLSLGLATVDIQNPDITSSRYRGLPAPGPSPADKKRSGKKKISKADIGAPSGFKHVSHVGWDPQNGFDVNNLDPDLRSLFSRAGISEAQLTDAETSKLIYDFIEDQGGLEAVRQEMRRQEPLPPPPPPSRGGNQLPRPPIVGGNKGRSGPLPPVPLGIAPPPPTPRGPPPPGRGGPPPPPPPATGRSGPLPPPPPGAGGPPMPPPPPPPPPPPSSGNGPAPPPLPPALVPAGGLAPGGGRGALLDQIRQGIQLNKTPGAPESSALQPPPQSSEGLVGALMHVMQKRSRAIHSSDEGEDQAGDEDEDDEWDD

Kd (ACK (Homo sapiens)): 770 nM
Kd (WASP (Homo sapiens)): 55 nM
Kd (PAK1 (Homo sapiens)): 620 nM
Substance: Cdc42 (from UniProt P60953)
